PMC4883682, “STIM1 activation is regulated by a 14 amino acid sequence adjacent to the CRAC activation domain” (AIMS biophysics, 2016)

Target: the molecule itself
Assay: cross-linking; chemical crosslinking with dithiobis(succinymidyl propionate); constructs separately expressed; unstimulated state (Supplemental Figure S2)

Row | Protein | stoichiometry N
1 | STIM1(del344-448)-mApple (natural protein, human, UniProt Q13586 23-685, looked up, signal peptide in the construct; source: COS7 cells, transiently transfected (Lipofectamine 2000), in live cells; not shown: mApple, C-terminal, kept) LSHSHSEKATGTSSGANSEESTAAEFCRIDKPLCHSEDEKLSFEAVRNIHKLMDDDANGDVDVEESDEFLREDLNYHDPTVKHSTFHGEDKLISVEDLWKAWKSSEVYNWTVDEVVQWLITYVELPQYEETFRKLQLSGHAMPRLAVTNTTMTGTVLKMTDRSHRQKLQLKALDTVLFGPPLLTRHNHLKDFMLVVSIVIGVGGCWFAYIQNRYSKEHMKKMMKDLEGLHRAEQSLHDLQERLHKAQEEHRTVEVEKVHLEKKLRDEINLAKQEAQRLKELREGTENERSRQKYAEEELEQVREALRKAEKELESHSSWYASLVAALNIDPSWMGSTRPNPAHFIMTDDVDDMDEEIVSPLSMQSPSLQSSVRQRLTEPQHGLGSQRDLTHSDSESSLHMSDRQRVAPKPPQMSRAADEALNAMTSNGSHRLIEGVHPGSLVEKLPDSPALAKKALLALNHGLDKAHSLMELSPSAPPGGSPHLDSSRSHSPSSPDPDTPSPVGDSRALQASRNTRIPHLAGKKAVAEEDNGSIGEETDSSPGRKKFPLKIFKKPLKK | 2
2 | STIM1(del302-462)-mApple (natural protein, human, UniProt Q13586 23-685, looked up, signal peptide in the construct; source: COS7 cells, transiently transfected (Lipofectamine 2000), in live cells; not shown: mApple, C-terminal, kept) LSHSHSEKATGTSSGANSEESTAAEFCRIDKPLCHSEDEKLSFEAVRNIHKLMDDDANGDVDVEESDEFLREDLNYHDPTVKHSTFHGEDKLISVEDLWKAWKSSEVYNWTVDEVVQWLITYVELPQYEETFRKLQLSGHAMPRLAVTNTTMTGTVLKMTDRSHRQKLQLKALDTVLFGPPLLTRHNHLKDFMLVVSIVIGVGGCWFAYIQNRYSKEHMKKMMKDLEGLHRAEQSLHDLQERLHKAQEEHRTVEVEKVHLEKKLRDEINLAKQEAQRLKSTRPNPAHFIMTDDVDDMDEEIVSPLSMQSPSLQSSVRQRLTEPQHGLGSQRDLTHSDSESSLHMSDRQRVAPKPPQMSRAADEALNAMTSNGSHRLIEGVHPGSLVEKLPDSPALAKKALLALNHGLDKAHSLMELSPSAPPGGSPHLDSSRSHSPSSPDPDTPSPVGDSRALQASRNTRIPHLAGKKAVAEEDNGSIGEETDSSPGRKKFPLKIFKKPLKK | 2
